In US20240209084A1 (CYTOARM, published 2024):

Assays:
[1] = target: T1, CD33 (human, UniProt P20138 18-364); assay: flow cytometry on HL-60 cells (CD33+), FITC goat anti-human IgG Fab
T1 construct: whole, on cells; also called CD33^+ human acute myeloid leukemia (HL-60)
Method: (§1) Samples were analyzed with FITC conjugated Goat anti-Human IgG Fab antibody and flow cytometry.

[2] = target: T2, HGFR (human, UniProt P08581 25-1390); assay: flow cytometry on A549 cells (HGFR+), FITC goat anti-human IgG Fab
T2 construct: whole, on cells; also called cMET; hepatocyte growth factor receptor
Method: as §1

[3] = target: T3, CD47 (human, UniProt Q08722 19-323); assay: flow cytometry on MCF-7/HER2 cells (CD47+), FITC goat anti-human IgG Fab
T3 construct: whole, on cells; also called CD47^+ breast cancer (MCF7/HER2)
Method: as §1

T1 sequence (P20138 18-364): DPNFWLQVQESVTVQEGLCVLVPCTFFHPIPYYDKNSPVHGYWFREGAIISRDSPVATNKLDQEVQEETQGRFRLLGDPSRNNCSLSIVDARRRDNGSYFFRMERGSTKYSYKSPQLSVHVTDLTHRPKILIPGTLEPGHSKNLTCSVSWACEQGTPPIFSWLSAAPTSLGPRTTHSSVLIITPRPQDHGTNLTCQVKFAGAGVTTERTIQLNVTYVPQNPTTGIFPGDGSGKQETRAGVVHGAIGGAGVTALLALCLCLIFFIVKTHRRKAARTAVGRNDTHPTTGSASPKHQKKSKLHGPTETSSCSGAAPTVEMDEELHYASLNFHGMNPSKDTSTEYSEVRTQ
T2 sequence (P08581 25-1390): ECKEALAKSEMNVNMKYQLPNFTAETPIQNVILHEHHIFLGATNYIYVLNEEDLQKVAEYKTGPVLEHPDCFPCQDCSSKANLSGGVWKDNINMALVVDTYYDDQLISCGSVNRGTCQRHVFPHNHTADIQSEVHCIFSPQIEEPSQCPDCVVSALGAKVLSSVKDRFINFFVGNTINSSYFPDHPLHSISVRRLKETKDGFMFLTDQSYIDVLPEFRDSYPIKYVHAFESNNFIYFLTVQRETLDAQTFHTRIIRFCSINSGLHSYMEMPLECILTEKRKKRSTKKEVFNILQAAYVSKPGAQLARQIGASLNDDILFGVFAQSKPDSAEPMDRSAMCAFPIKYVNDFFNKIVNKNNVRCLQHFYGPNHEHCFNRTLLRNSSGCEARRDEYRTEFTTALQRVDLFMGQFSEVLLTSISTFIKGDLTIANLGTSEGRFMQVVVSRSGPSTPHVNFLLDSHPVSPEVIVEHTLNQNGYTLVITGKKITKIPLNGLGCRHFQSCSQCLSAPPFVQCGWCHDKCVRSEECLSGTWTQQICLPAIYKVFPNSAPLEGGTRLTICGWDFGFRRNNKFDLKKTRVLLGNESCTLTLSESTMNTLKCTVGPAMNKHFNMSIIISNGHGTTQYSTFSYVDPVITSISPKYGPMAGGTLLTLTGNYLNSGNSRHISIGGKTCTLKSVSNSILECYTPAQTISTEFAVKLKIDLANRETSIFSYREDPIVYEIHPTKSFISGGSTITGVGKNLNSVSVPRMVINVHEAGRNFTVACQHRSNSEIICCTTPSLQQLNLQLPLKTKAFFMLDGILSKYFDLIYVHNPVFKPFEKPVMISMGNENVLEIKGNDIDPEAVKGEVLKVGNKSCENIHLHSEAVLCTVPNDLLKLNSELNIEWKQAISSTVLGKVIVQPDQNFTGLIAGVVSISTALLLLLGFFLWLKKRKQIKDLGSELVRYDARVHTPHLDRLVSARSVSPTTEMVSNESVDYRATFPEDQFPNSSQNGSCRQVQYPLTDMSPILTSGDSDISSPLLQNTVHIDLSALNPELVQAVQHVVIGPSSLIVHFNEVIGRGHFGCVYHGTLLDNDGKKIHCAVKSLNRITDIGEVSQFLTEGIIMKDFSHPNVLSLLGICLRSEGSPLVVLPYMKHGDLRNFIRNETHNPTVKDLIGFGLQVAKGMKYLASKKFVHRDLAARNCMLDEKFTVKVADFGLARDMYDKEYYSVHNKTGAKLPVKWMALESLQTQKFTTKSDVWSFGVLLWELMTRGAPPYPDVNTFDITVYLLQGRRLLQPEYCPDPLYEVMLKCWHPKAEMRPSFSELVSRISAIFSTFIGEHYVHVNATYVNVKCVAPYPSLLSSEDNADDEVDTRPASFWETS

B1: CTA03Fab/CTAT11scFv (bispecific antibody)
heavy: EVQLLESGGGLVQPGGSLRLSCAASGFTFSSFPMAWVRQAPGKGLEWVSTISTSGGRTYYRDSVKGRFTISRDNSKNTLYLQMNSLRAEDTAVYYCAKFRQYSGGFDYWGQGTLVTVSSASTKGPSVFPLAPSSKSTSGGTAALGCLVKDYFPEPVTVSWNSGALTSGVHTFPAVLQSSGLYSLSSVVTVPSSSLGTQTYICNVNHKPSNTKVDKKVEPKSCGGGSGGGEVQLVQSGAEVKKPGSSVKVSCKASGYTITDSNIHWVRQAPGQSLEWIGYIYPYNGGTDYNQKFKNRATLTVDNPTNTAYMELSSLRSEDTAFYYCVNGNPWLAYWGQGTLVTVSSGGGGSGGGGSGGGGSDIQLTQSPSTLSASVGDRVTITCRASESLDNYGIRFLTWFQQKPGKAPKLLMYAASNQGSGVPSRFSGSGSGTEFTLTISSLQPDDFATYYCQQTKEVPWSFGQGTKVEVK
light: DIQLTQPNSVSTSLGSTVKLSCTLSSGNIENNYVHWYQLYEGRSPTTMIYDDDKRPDGVPDRFSGSIDRSSNSAFLTIHNVAIEDEAIYFCHSYVSSFNVFGGGTKLTVLRQPKAAPSVTLFPPSSEELQANKATLVCLISDFYPGAVTVAWKADSSPVKAGVETTTPSKQSNNKYAASSYLSLTPEQWKSHRSYSCQVTHEGSTVEKTVAPTECS
notes: also called antiCD3Fab/anti-CD33scFv
- binding result [1]: binds

B2: CTA03Fab/CTAT12scFv (bispecific antibody)
heavy: EVQLLESGGGLVQPGGSLRLSCAASGFTFSSFPMAWVRQAPGKGLEWVSTISTSGGRTYYRDSVKGRFTISRDNSKNTLYLQMNSLRAEDTAVYYCAKFRQYSGGFDYWGQGTLVTVSSASTKGPSVFPLAPSSKSTSGGTAALGCLVKDYFPEPVTVSWNSGALTSGVHTFPAVLQSSGLYSLSSVVTVPSSSLGTQTYICNVNHKPSNTKVDKKVEPKSCGGGSGGGEVQLVESGGGLVQPGGSLRLSCAASGYTFTSYWLHWVRQAPGKGLEWVGMIDPSNSDTRFNPNFKDRFTISADTSKNTAYLQMNSLRAEDTAVYYCATYRSYVTPLDYWGQGTLVTVSSGGGGSGGGGSGGGGSDIQMTQSPSSLSASVGDRVTITCKSSQSLLYTSSQKNYLAWYQQKPGKAPKLLIYWASTRESGVPSRFSGSGSGTDFTLTISSLQPEDFATYYCQQYYAYPWTFGQGTKVEIK
light: DIQLTQPNSVSTSLGSTVKLSCTLSSGNIENNYVHWYQLYEGRSPTTMIYDDDKRPDGVPDRFSGSIDRSSNSAFLTIHNVAIEDEAIYFCHSYVSSFNVFGGGTKLTVLRQPKAAPSVTLFPPSSEELQANKATLVCLISDFYPGAVTVAWKADSSPVKAGVETTTPSKQSNNKYAASSYLSLTPEQWKSHRSYSCQVTHEGSTVEKTVAPTECS
notes: also called antiCD3Fab/anti-HGFRscFv
- binding result [2]: binds

B3: CTA03Fab/CTAT13scFv (bispecific antibody)
heavy: EVQLLESGGGLVQPGGSLRLSCAASGFTFSSFPMAWVRQAPGKGLEWVSTISTSGGRTYYRDSVKGRFTISRDNSKNTLYLQMNSLRAEDTAVYYCAKFRQYSGGFDYWGQGTLVTVSSASTKGPSVFPLAPSSKSTSGGTAALGCLVKDYFPEPVTVSWNSGALTSGVHTFPAVLQSSGLYSLSSVVTVPSSSLGTQTYICNVNHKPSNTKVDKKVEPKSCGGGSGGGQVQLVQSGAEVKKPGASVKVSCKASGYTFTNYNMHWVRQAPGQRLEWMGTIYPGNDDTSYNQKFKDRVTITADTSASTAYMELSSLRSEDTAVYYCARGGYRAMDYWGQGTLVTVSSGGGGSGGGGSGGGGSDIVMTQSPLSLPVTPGEPASISCRSSQSIVYSNGNTYLGWYLQKPGQSPQLLIYKVSNRFSGVPDRFSGSGSGTDFTLKISRVEAEDVGVYYCFQGSHVPYTFGQGTKLEIK
light: DIQLTQPNSVSTSLGSTVKLSCTLSSGNIENNYVHWYQLYEGRSPTTMIYDDDKRPDGVPDRFSGSIDRSSNSAFLTIHNVAIEDEAIYFCHSYVSSFNVFGGGTKLTVLRQPKAAPSVTLFPPSSEELQANKATLVCLISDFYPGAVTVAWKADSSPVKAGVETTTPSKQSNNKYAASSYLSLTPEQWKSHRSYSCQVTHEGSTVEKTVAPTECS
notes: also called antiCD3Fab/anti-CD47scFv
- binding result [3]: binds
